For series [1], the target named is T1, MsEgtE (Mycolicibacterium smegmatis, UniProt A0R5M7, Y48A).
T1 construct: gene egtE; full-length ORF, pET28a N-terminal hexa-histidine tag, E. coli BL21 (DE3); homodimer (~76 kDa by SEC, predicted 78 kDa)
As to the kind of experiment: isothermal titration calorimetry, single injection. The series is classed as binding. The following applies: 25 °C; 1 mM sulfoxide 4 injected into 20 μM enzyme. In general terms: In ITC the heat of successive injections is recorded.

For series [2], the target named is T2, MsEgtE (Mycolicibacterium smegmatis, UniProt A0R5M7).
T2 construct: gene egtE; full-length ORF, pET28a N-terminal hexa-histidine tag, E. coli BL21 (DE3); homodimer (~76 kDa by SEC, predicted 78 kDa)
T2 sequence (A0R5M7 1-371): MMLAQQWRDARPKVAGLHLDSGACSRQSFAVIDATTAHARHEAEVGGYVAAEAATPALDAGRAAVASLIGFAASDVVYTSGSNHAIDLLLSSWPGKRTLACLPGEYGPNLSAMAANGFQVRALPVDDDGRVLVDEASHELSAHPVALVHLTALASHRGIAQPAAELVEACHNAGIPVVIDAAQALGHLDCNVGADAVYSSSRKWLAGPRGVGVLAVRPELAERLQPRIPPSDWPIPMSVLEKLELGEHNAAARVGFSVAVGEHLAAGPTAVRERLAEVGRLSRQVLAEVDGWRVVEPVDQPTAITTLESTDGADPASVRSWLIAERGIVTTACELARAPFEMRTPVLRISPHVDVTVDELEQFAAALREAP
As to the kind of experiment: X-ray crystal structure, […] Å. The series is classed as binding. The following applies: active site of MsEgtE-PLP; from soaked sulfoxide 4 (10 mM).

Substrate in the series “purified protein”: C[N+](C)(C)[C@@H](Cc1cnc([S+]([O-])C[C@H](N)C(=O)O)[nH]1)C(=O)[O-]
Description: purified protein. The series is classed as biochemical, Mycolicibacterium smegmatis. The following applies: 50 mM KPi pH 8.0, 25 °C, PLP-loaded enzyme, 1 mM DTT, 0.13 mM NADH.

Series [3] deals with the molecule itself. Description: crystal structure; MsEgtE-PLP crystal, 2.8 Å, two molecules per asymmetric unit; sitting drop at 16 °C, 0.1 M HEPES-Na pH 7.5, 1 M NaCl, 0.1 M LiSO4, 10% PEG1000.
Series [4] concerns the molecule itself. As to the kind of experiment: crystal structure; MsEgtE-PLP binding pyruvate crystal, 2.35 Å, short soak in sulfoxide 4; 0.1 M citric acid pH 6.5, 15% PEG8000, 15% glycol.

T1 sequence (A0R5M7 whole entry Y48A): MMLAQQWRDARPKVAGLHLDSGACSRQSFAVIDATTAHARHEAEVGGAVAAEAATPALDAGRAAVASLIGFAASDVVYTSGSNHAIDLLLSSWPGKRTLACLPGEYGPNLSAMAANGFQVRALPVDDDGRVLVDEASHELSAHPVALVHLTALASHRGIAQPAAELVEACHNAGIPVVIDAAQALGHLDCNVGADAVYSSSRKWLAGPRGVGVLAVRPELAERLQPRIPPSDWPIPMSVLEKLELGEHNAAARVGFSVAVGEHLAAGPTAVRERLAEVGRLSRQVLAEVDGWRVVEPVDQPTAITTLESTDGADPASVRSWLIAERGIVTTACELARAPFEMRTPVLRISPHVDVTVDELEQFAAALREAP

For `C[N+](C)(C)[C@@H](Cc1cnc([S+]([O-])C[C@H](N)C(=O)O)[nH]1)C(=O)[O-]` (stereo partly drawn) [compound 4, sulfoxide 4], on MsEgtE [1], the “isothermal titration calorimetry, single injection” value is “Y48A mutant still retains a certain level of substrate binding capability”.

In the case of `CC(=O)C(=O)O` [pyruvate], the “X-ray crystal structure, 2.35 Å” value at MsEgtE [2] was “pyruvate binds in the deep crevice of the active center”.

B1: MsEgtE (Mycolicibacterium smegmatis MC2 155) (protein)
chain: MMLAQQWRDARPKVAGLHLDSGACSRQSFAVIDATTAHARHEAEVGGYVAAEAATPALDAGRAAVASLIGFAASDVVYTSGSNHAIDLLLSSWPGKRTLACLPGEYGPNLSAMAANGFQVRALPVDDDGRVLVDEASHELSAHPVALVHLTALASHRGIAQPAAELVEACHNAGIPVVIDAAQALGHLDCNVGADAVYSSSRKWLAGPRGVGVLAVRPELAERLQPRIPPSDWPIPMSVLEKLELGEHNAAARVGFSVAVGEHLAAGPTAVRERLAEVGRLSRQVLAEVDGWRVVEPVDQPTAITTLESTDGADPASVRSWLIAERGIVTTACELARAPFEMRTPVLRISPHVDVTVDELEQFAAALREAP
notes: full-length ORF, pET28a N-terminal hexa-histidine tag, E. coli BL21 (DE3); homodimer (~76 kDa by SEC, predicted 78 kDa)
B1: in the series “purified protein”, the Michaelis constant (Km) (commonly the substrate concentration at which the rate is half of its maximum) came to 516.0 ± 122.1 µM; the kcat (as a rule, the number of substrate molecules converted per active site and unit of time at saturation) worked out at 2.08 ± 0.25 s⁻¹.

B2: MsEgtE (Mycolicibacterium smegmatis MC2 155; Y106F) (protein)
chain: MMLAQQWRDARPKVAGLHLDSGACSRQSFAVIDATTAHARHEAEVGGYVAAEAATPALDAGRAAVASLIGFAASDVVYTSGSNHAIDLLLSSWPGKRTLACLPGEFGPNLSAMAANGFQVRALPVDDDGRVLVDEASHELSAHPVALVHLTALASHRGIAQPAAELVEACHNAGIPVVIDAAQALGHLDCNVGADAVYSSSRKWLAGPRGVGVLAVRPELAERLQPRIPPSDWPIPMSVLEKLELGEHNAAARVGFSVAVGEHLAAGPTAVRERLAEVGRLSRQVLAEVDGWRVVEPVDQPTAITTLESTDGADPASVRSWLIAERGIVTTACELARAPFEMRTPVLRISPHVDVTVDELEQFAAALREAP
notes: as for B1
On to B2, for which, in the series “purified protein”, the Michaelis-Menten constant (Km) was 52.1 ± 13.1 µM and the catalytic constant (kcat) worked out at 0.32 ± 0.02 s⁻¹.

B3: MsEgtE (Mycolicibacterium smegmatis MC2 155; Q183A) (protein)
chain: MMLAQQWRDARPKVAGLHLDSGACSRQSFAVIDATTAHARHEAEVGGYVAAEAATPALDAGRAAVASLIGFAASDVVYTSGSNHAIDLLLSSWPGKRTLACLPGEYGPNLSAMAANGFQVRALPVDDDGRVLVDEASHELSAHPVALVHLTALASHRGIAQPAAELVEACHNAGIPVVIDAAAALGHLDCNVGADAVYSSSRKWLAGPRGVGVLAVRPELAERLQPRIPPSDWPIPMSVLEKLELGEHNAAARVGFSVAVGEHLAAGPTAVRERLAEVGRLSRQVLAEVDGWRVVEPVDQPTAITTLESTDGADPASVRSWLIAERGIVTTACELARAPFEMRTPVLRISPHVDVTVDELEQFAAALREAP
notes: as for B1
In the case of B3, in “purified protein”, the Michaelis-Menten constant (Km) is on record as 679.7 ± 235.0 µM and the turnover number (kcat) worked out at 0.23 ± 0.04 s⁻¹.

B4: MsEgtE (Mycolicibacterium smegmatis MC2 155; R202K) (protein)
chain: MMLAQQWRDARPKVAGLHLDSGACSRQSFAVIDATTAHARHEAEVGGYVAAEAATPALDAGRAAVASLIGFAASDVVYTSGSNHAIDLLLSSWPGKRTLACLPGEYGPNLSAMAANGFQVRALPVDDDGRVLVDEASHELSAHPVALVHLTALASHRGIAQPAAELVEACHNAGIPVVIDAAQALGHLDCNVGADAVYSSSKKWLAGPRGVGVLAVRPELAERLQPRIPPSDWPIPMSVLEKLELGEHNAAARVGFSVAVGEHLAAGPTAVRERLAEVGRLSRQVLAEVDGWRVVEPVDQPTAITTLESTDGADPASVRSWLIAERGIVTTACELARAPFEMRTPVLRISPHVDVTVDELEQFAAALREAP
notes: as for B1
Consider B4, for which, in “purified protein”, the Km is given as 58.5 ± 8.7 µM and the catalytic constant (kcat) was 0.03 ± 0.01 s⁻¹.

B5: ergothioneine-biosynthesis C-S lyase EgtE from Mycobacterium smegmatis (enzyme, M. smegmatis strain mc2155, UniProt A0R5M7 1-371, looked up)
chain: MMLAQQWRDARPKVAGLHLDSGACSRQSFAVIDATTAHARHEAEVGGYVAAEAATPALDAGRAAVASLIGFAASDVVYTSGSNHAIDLLLSSWPGKRTLACLPGEYGPNLSAMAANGFQVRALPVDDDGRVLVDEASHELSAHPVALVHLTALASHRGIAQPAAELVEACHNAGIPVVIDAAQALGHLDCNVGADAVYSSSRKWLAGPRGVGVLAVRPELAERLQPRIPPSDWPIPMSVLEKLELGEHNAAARVGFSVAVGEHLAAGPTAVRERLAEVGRLSRQVLAEVDGWRVVEPVDQPTAITTLESTDGADPASVRSWLIAERGIVTTACELARAPFEMRTPVLRISPHVDVTVDELEQFAAALREAP
modifications: PLP covalently linked to Lys203 via a Schiff base linkage (monomer 1; bond broken in monomer 2 of the MsEgtE-PLP crystal)
notes: EgtE (PLP-dependent C-S lyase), Mycobacterium smegmatis strain mc2155, full-length ORF of msmeg_6246 in pET28a; residues 1-371 described in the structure; Homodimer by crystal structure and size exclusion chromatography; also called MsEgtE; MsEgtE-PLP
As to B5, the results for the “stoichiometry N” value in series [3] and in series [4] were 2 and 4, respectively.

(Values after paper PMC10805701, “Structure of mycobacterial ergothioneine-biosynthesis C-S lyase EgtE” (The Journal of Biological Chemistry, 2023).)
